{"source": "the supplement of paper PMC9732359", "note": "± gives the uncertainty stated by the source.", "data": [{"experiment": "protein stability index of a GFP-peptide fusion (yeast GPS) (PSI 1-4); higher = more stable; sorted into four equal gates, so the index is relative within each strain", "conditions": "doa10∆", "in_short": "(§1)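 Tiled 17-residue peptides from yeast proteins were fused downstream of GFP on a plasmid that also expresses Cherry, and the pooled library was carried in yeast. Mid-log cultures grown in leucine-free medium were sorted into four equal gates by GFP/Cherry fluorescence ratio. Plasmids from each gate were PCR-amplified and Illumina-sequenced, and reads were assigned to strains by barcodes. Each peptide's protein stability index is the sum, over gates, of the gate's read frequency multiplied by its gate number.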", "values": [{"sequence": "PRRYGKGSRQCRVCSSH [RPS29A]", "protein stability index": "2.81 ± 0.055"}]}, {"experiment": "protein stability index of a GFP-peptide fusion (yeast GPS) (PSI 1-4); higher = more stable; sorted into four equal gates, so the index is relative within each strain", "conditions": "pdr5∆", "in_short": "as §1", "values": [{"sequence": "NTFKVLSKFFFFIFVFN [COB]", "protein stability index": "1.41 ± 0.1"}, {"sequence": "NTHWGLVCPAETPEGQA [RPB2]", "protein stability index": "1.49 ± 0.1"}, {"sequence": "NTLEEFEHGRTPAEMSR [FAS2]", "protein stability index": "3.09 ± 0.16"}, {"sequence": "NTLLQQQNYSKVLLPSI [SWI1]", "protein stability index": "2.9 ± 0.11"}, {"sequence": "NTLNIDNTARVIFDASI [BRN1]", "protein stability index": "2.28 ± 0.039"}, {"sequence": "NTNGTNASANSTSFSFN [YOR098C/NUP1]", "protein stability index": "3.12 ± 0.045"}, {"sequence": "NTNNNNTNNNNNPANNT [SWI1]", "protein stability index": "3.354 ± 0.033"}, {"sequence": "NTQLHGPSATDPETTAT [RGR1]", "protein stability index": "2.89 ± 0.088"}, {"sequence": "NTSAQHVESDKITAKTQ [IRR1]", "protein stability index": "2.99 ± 0.039"}, {"sequence": "NTSVLMKLKLMIVYYKD [YCS4]", "protein stability index": "1.56 ± 0.12"}, {"sequence": "NTVDGDLLKLVHLSNGY [FAS1]", "protein stability index": "2.52 ± 0.056"}, {"sequence": "NTYKRLVIGIFKRDLLR [YJL039C/NUP192]", "protein stability index": "1.58 ± 0.083"}, {"sequence": "NVESVGSIPVDQVVVRG [RPB3]", "protein stability index": "2.45 ± 0.072"}, {"sequence": "NVFVILMDKCLPKVRIR [DIS3]", "protein stability index": "1.87 ± 0.05"}, {"sequence": "NVGLPILKSLKNRSNRK [YOR098C/NUP1]", "protein stability index": "3.1 ± 0.078"}, {"sequence": "NVKNYSTTQEILEFITA [RPC34]", "protein stability index": "1.45 ± 0.088"}, {"sequence": "NVLNRIQELEDQRDELL [ITC1]", "protein stability index": "3.15 ± 0.085"}, {"sequence": "NVNKKALGQDTEKMEEQ [MED11]", "protein stability index": "2.94 ± 0.055"}, {"sequence": "NVPGVETANVASLNLLQ [RPL4A]", "protein stability index": "3.05 ± 0.055"}, {"sequence": "NVSLIKIEGVATPQEAQ [RPL33B]", "protein stability index": "2.78 ± 0.096"}, {"sequence": "NVTMIDDLIHFTLKQWN [COR1]", "protein stability index": "2.89 ± 0.16"}, {"sequence": "NVVPYHRNTSDYYYEDA [SWI1]", "protein stability index": "3.13 ± 0.075"}, {"sequence": "NYAMTRNILHNTVPQVT [SRB5]", "protein stability index": "2.15 ± 0.061"}, {"sequence": "NYHPMNIDETSDEVSRG [SMC4]", "protein stability index": "3.17 ± 0.064"}, {"sequence": "NYIENMNEMCKKINAKE [RPN8]", "protein stability index": "3.07 ± 0.059"}, {"sequence": "NYKQLTLVGGGAKITPE [RRP43]", "protein stability index": "1.94 ± 0.11"}, {"sequence": "NYLKYLEYWCNPPYSQC [SOH1]", "protein stability index": "2.25 ± 0.048"}, {"sequence": "NYLLKRNEDARRNLRYG [RPO31]", "protein stability index": "3.41 ± 0.094"}, {"sequence": "NYLRQQCNYSSLVFNRK [PRE5]", "protein stability index": "2.94 ± 0.11"}, {"sequence": "NYNRIAKICALLFFNFS [NUT1]", "protein stability index": "1.8 ± 0.047"}, {"sequence": "PAELEGLLDLERVIVVT [FAS2]", "protein stability index": "2.11 ± 0.064"}, {"sequence": "PALLRPGRLDRKIEFPS [RPT3]", "protein stability index": "3.08 ± 0.11"}, {"sequence": "PAMAMEDLKNFIFQIIE [SRB8]", "protein stability index": "2.9 ± 0.074"}, {"sequence": "PASNILRRTTQRVFDET [YDL116W/NUP84]", "protein stability index": "2.66 ± 0.061"}, {"sequence": "PAWRVWLNFLRGTIPLL [PRP8]", "protein stability index": "1.88 ± 0.071"}, {"sequence": "PDFLSKYSAITSSIFQE [NUT1]", "protein stability index": "2.05 ± 0.042"}, {"sequence": "PDTSNEICDLAYQYVRA [SRB2]", "protein stability index": "2.93 ± 0.04"}, {"sequence": "PDYYMIIKYPVAFDNIN [SNF2]", "protein stability index": "2.08 ± 0.12"}, {"sequence": "PEDLNSLYIYYLIKLLG [SIR2]", "protein stability index": "2.15 ± 0.05"}, {"sequence": "PEEATTIFSVMVEWLES [PRP8]", "protein stability index": "1.26 ± 0.093"}, {"sequence": "PEIDNLDDLVVLKKKNI [RRP6]", "protein stability index": "2.15 ± 0.052"}, {"sequence": "PEIGNRKINLFYLYMLV [SWI1]", "protein stability index": "1.32 ± 0.054"}, {"sequence": "PENITKREASRGFFDIL [MCD1]", "protein stability index": "3.01 ± 0.082"}, {"sequence": "PEREVLVRELYQWRDLI [RRP6]", "protein stability index": "2.78 ± 0.07"}, {"sequence": "PERWLPLRDRSTYRPKK [SRP72]", "protein stability index": "3.05 ± 0.22"}, {"sequence": "PEYYSTARVMGGLKNGV [DIS3]", "protein stability index": "3.24 ± 0.1"}, {"sequence": "PFFARFKLRIQTTEGYD [RPB11]", "protein stability index": "1.37 ± 0.12"}, {"sequence": "PFQVSSFVKETKLHSGD [SRB8]", "protein stability index": "2.77 ± 0.082"}, {"sequence": "PFSEGVTFSVMPPKKSW [SMC4]", "protein stability index": "2.03 ± 0.074"}, {"sequence": "PFTASQSNINTNAPLRT [YIL149C/MLP2]", "protein stability index": "2.49 ± 0.089"}, {"sequence": "PFTNEAHMWPRVHDQPL [POP3]", "protein stability index": "1.36 ± 0.24"}, {"sequence": "PFVLAENMWPFSYQEVE [CDC53]", "protein stability index": "1.9 ± 0.04"}, {"sequence": "PGAKPLQVGDVVSTTAV [FAS1]", "protein stability index": "2.42 ± 0.086"}, {"sequence": "PGGQAALRALARSGLRI [RPS14A]", "protein stability index": "2.35 ± 0.029"}, {"sequence": "PGNNIPYMNHKNTSSMD [GAL11]", "protein stability index": "2.11 ± 0.14"}, {"sequence": "PGNRNADNVDKILEQFE [FAS2]", "protein stability index": "1.53 ± 0.18"}, {"sequence": "PGPYPNEQAARAANQGA [CYT1]", "protein stability index": "2.68 ± 0.045"}, {"sequence": "PGSRASSRFIKGGSLYG [RPN2]", "protein stability index": "1.92 ± 0.11"}, {"sequence": "PHLIIQNHNSKSTDNSA [IRR1]", "protein stability index": "2.88 ± 0.057"}, {"sequence": "PHLLKQGLAMVEKYAPD [RRP42]", "protein stability index": "2.35 ± 0.11"}, {"sequence": "PHTVIRRKTTKQNSSSD [YDL088C/ASM4]", "protein stability index": "3.05 ± 0.079"}, {"sequence": "PIFNYIFTEKIYKSIFN [YJL039C/NUP192]", "protein stability index": "1.46 ± 0.04"}, {"sequence": "PIGRHEELLAQYESQAP [SWP82]", "protein stability index": "2.25 ± 0.063"}, {"sequence": "PINLENNDGSYGLFLKY [SRB8]", "protein stability index": "2.34 ± 0.075"}, {"sequence": "PINLPPQIAQLPLATQQ [SNF5]", "protein stability index": "2.49 ± 0.059"}, {"sequence": "PISISNAPTFNPKYDTS [YAR002W/NUP60]", "protein stability index": "3.08 ± 0.068"}, {"sequence": "PISKHSKQAIYTRATAS [RPS25A]", "protein stability index": "1.86 ± 0.044"}, {"sequence": "PKDTSAATMTSAPPPAL [RGR1]", "protein stability index": "2.59 ± 0.1"}, {"sequence": "PKELGGLGMISASHILI [PRP8]", "protein stability index": "2.67 ± 0.053"}, {"sequence": "PKFDVGALMALHGEGSG [RPS1A]", "protein stability index": "2.26 ± 0.092"}, {"sequence": "PKKEYDDDAVRREVQIQ [NSL1]", "protein stability index": "2.11 ± 0.25"}, {"sequence": "PKKFGGKGARSRFQKSY [RPS16A]", "protein stability index": "3.31 ± 0.11"}, {"sequence": "PKLESVKWQYDPNNPVD [SNF12]", "protein stability index": "2.81 ± 0.055"}, {"sequence": "PKNLSTPSTSSNGEFIP [CSE2]", "protein stability index": "2.87 ± 0.045"}, {"sequence": "PKNVKGEEDADEEETAE [RPN1]", "protein stability index": "3.16 ± 0.26"}, {"sequence": "PKSASNTSSKRQKKKPT [IRR1]", "protein stability index": "2.61 ± 0.072"}, {"sequence": "PKVSAGDSGISPEESKA [SIR4]", "protein stability index": "3.46 ± 0.13"}, {"sequence": "PLELSAPIGKHYVVLDT [DIS3]", "protein stability index": "2.78 ± 0.14"}, {"sequence": "PLKRAIWLIKCCYFIEW [SRB8]", "protein stability index": "2.12 ± 0.074"}, {"sequence": "PLKTELEANGRSLEKVN [SSN2]", "protein stability index": "3.34 ± 0.08"}, {"sequence": "PLLSNYASKINRAEGPE [RGR1]", "protein stability index": "2.8 ± 0.1"}, {"sequence": "PLQGIFHNAVFNSFRRF [QCR8]", "protein stability index": "2.47 ± 0.048"}, {"sequence": "PLQSIPEIGNRKINLFY [SWI1]", "protein stability index": "1.48 ± 0.072"}, {"sequence": "PLRENTNVLDVKDKEED [YDL116W/NUP84]", "protein stability index": "3.11 ± 0.1"}, {"sequence": "PLRMETIPILESDSKAT [DSN1]", "protein stability index": "2.54 ± 0.084"}, {"sequence": "PLSESLRLVDDDENNPS [RRP6]", "protein stability index": "3.12 ± 0.096"}, {"sequence": "PLSLTHRDKNKMDMICR [DIS3]", "protein stability index": "3.43 ± 0.16"}, {"sequence": "PMASSSSFGSESLTFNE [SWI1]", "protein stability index": "3.16 ± 0.041"}, {"sequence": "PMETLLSGLSADKPFTR [YML031W/NDC1]", "protein stability index": "3.04 ± 0.05"}, {"sequence": "PNFEASFVHGVVGQLFQ [SMC2]", "protein stability index": "2.56 ± 0.11"}, {"sequence": "PNFLIMQGKITKVLNMK [SMC2]", "protein stability index": "2.86 ± 0.07"}, {"sequence": "PNISHSNIDYQTLLANS [SNF2]", "protein stability index": "2.7 ± 0.18"}, {"sequence": "PNLIEKMVAKGLNDLVE [BRR2]", "protein stability index": "2.82 ± 0.21"}, {"sequence": "PNNSRDDYKDLTCSLYE [IRR1]", "protein stability index": "2.88 ± 0.069"}, {"sequence": "PNPTPSMINSVSPTNVM [PGD1]", "protein stability index": "2.55 ± 0.037"}, {"sequence": "PNSNVELAGGNASLTIE [SMC1]", "protein stability index": "3.06 ± 0.2"}, {"sequence": "PNVSDKYYLEESNVNDS [NUT1]", "protein stability index": "2.85 ± 0.15"}, {"sequence": "PPLTYKNDTKILVLALE [PRP8]", "protein stability index": "2.48 ± 0.043"}, {"sequence": "PPPPGFEEDSDLALPPP [PRP8]", "protein stability index": "3.36 ± 0.07"}, {"sequence": "PPPPQQSQPIANQSATS [SNF5]", "protein stability index": "3.15 ± 0.049"}, {"sequence": "PQNTTATTGGLFGSKPQ [YGR119C/NUP57]", "protein stability index": "3.36 ± 0.1"}, {"sequence": "PQQAQQQPNPLHGLTPT [GAL11]", "protein stability index": "2.95 ± 0.042"}, {"sequence": "PQQSGKKLLINKDASLA [DPB4]", "protein stability index": "1.99 ± 0.064"}]}]}
